Legend:
BM 34−KSL cells = experiment: Competitive repopulating unit (CRU) assay of 34−KSL cell progeny cultured with TSF or TSF+PTN (Example 2); assay type: in vivo, mouse
Experimental: BM 34^−KSL cells were either isolated for injection into recipient animals, or placed into cultures containing TSF alone, TSF+PTN, TSF+HUBECs+goat IgG, or TSF+HUBECs+goat anti-PTN. Recipient C57BL6 animals (CD45. 2^+) received 950 cGy total body irradiation (TBI) and were then injected via tail vein with limiting doses of BM 34^−KSL cells or their progeny following culture. 1×10^5 host BM MNCs were co-injected-into recipient mice as competitor cells. Multilineage hematologic reconstitution was measured in the PB by flow cytometry over time post-transplant as previously described (Reya, et al, Nature 423:409-14 (2003), Salter et al, Blood 113:2104-7 (2009)). Animals were considered to be engrafted if donor CD45. 1^+ cells were present at ≧1% in the PB (Chute et al, Blood 100:4433-9 (2002), Chute et al, Blood 105: 576-83 (2005), (Chute et al, Proc Natl Acad Sci USA 103, 11707-12 (2006)). CRU estimates were performed using L-Calc software (Stem Cell Technologies) as previously described (Reya, et al, Nature 423:409-14 (2003), Chute et al, Blood 109:2365-72 (2007), Chute et al, Proc Natl Acad Sci USA 103, 11707-12 (2006)).
In order to determine if treatment with PTN could induce functional HSC expansion in culture, competitive repopulating unit (CRU) assays were performed using limiting dilutions of donor CD45. 1^+ BM 34^−KSL cells transplanted into lethally irradiated CD45. 2^+ C57Bl6 mice. Peripheral blood (PB) was collected from primary recipient mice at 4 weeks, 12 weeks and 24 weeks to assess the engraftment of donor CD45. 1^+ cells in the PB of recipient mice. […] 1^+ donor cell engraftment in the PB compared to mice transplanted with the identical dose of day 0 34^−KSL cells and mice transplanted with the progeny of 34^−KSL cells cultured with TSF alone (FIG. 6C, P=0.0008 and P=0.001, respectively). […] The PB engraftment of multilineage donor CD45. […] As expected, the CRU frequency within the progeny of 34^−KSL cells following culture with cytokines alone (TSF) was reduced to 1 in 58 cells (95% CI: 1/31 to 1/108). Conversely, the CRU frequency within the progeny of 34^−KSL cells cultured with TSF+PTN was 1 in 10 cells (95% CI: 1/5 to 1/20). Therefore, the addition of PTN induced a 4-fold increase in HSCs compared to input and a 6-fold increase compared to the progeny of TSF alone. […] 1^+ cell reconstitution at all time points through 24 weeks compared to mice transplanted with day 0 34^−KSL cells or their progeny following culture with TSF alone (FIG. 6F). This corresponded to an increased CRU frequency in the PTN-treated progeny compared to input 34^−KSL cells at all time points. […]

34−KSL cells = experiment: Competitive repopulating assay at 4 weeks (Example 1); assay type: in vivo, mouse; conditions: lineage repopulation in transplanted mice
Source text: 34^−KSL cells from B6.SJL mice, carrying the CD45.1 allele, were sorted into 96-well U-bottomplates (BD) containing IMDM+10% FBS+1% pcn/strp. Day 0 34^−KSL cells were either isolated for injection into recipient animals, or placed into cultures containing TSF, TSF+recombinant PTN, co-culture with HUBECs+goat IgG, or HUBECs+goat anti-PTN. Recipient C57BL6 animals, expressing the CD45.2 allele, received an LD100/30 dose of 950 cGy total body irradiation (TBI) using a Cs137 irradiator and then transplanted via tail vein injection with 10, 30 or 100 34^−KSL cells or their progeny following culture. A rescue dose of 1×10^5 non-irradiated CD45.2 MNCs were co-injected into recipient mice. Multi-lineage hematologic reconstitution was monitored in the peripheral blood (PB) by flow cytometry, as previously described, at 4, 8, 12, and 24 weeks posttransplant. PB was collected via submandibular puncture; cells were treated with RBC lysis buffer (Sigma-Aldrich), and washed twice prior to staining with FITC- or PE-CD45.1, FITC-CD45.2, PE-anti-Thy 1.2, APC-anti-B220, APC-anti-Ter-119, or PE-anti-Mac-1 and PE-anti-Gr1. Animals were considered to be engrafted if donor CD45.1 cells were present at >1% for all lineages (Zhang et al, Nat. Med. 12:240-245 (2006)).
For the competitive repopulating assays, recipient CD45. […]

[1] = system: long-term repopulating HSCs; experiment: Secondary competitive repopulating transplant assay; assay type: in vivo, mouse
Experimental: Secondary competitive transplant assays were performed using whole BM harvested from primary CD45. 2^+ mice at 24 weeks following transplantation with either CD45. 1^+ BM 34^−KSL cells or the progeny of 34^−KSL cells following culture with TSF alone or TSF+PTN. Secondary recipient CD45. 2^+ C57Bl6 mice were irradiated with 950 cGy TBI and PB analysis of donor cell engraftment was performed at 12 weeks post-transplantation in secondary mice.
In order to confirm that PTN caused the amplification of long-term repopulating HSCs with serial repopulating capacity, secondary transplants were performed. Importantly, secondary CD45.

[2] = system: BM stem and progenitor cells; experiment: In vivo PTN study in mice irradiated with 700 cGy TBI; set-up: species or system mouse; conditions: 2 μg PTN intraperitoneally daily x 7 days, day +7
Experimental: Adult B6.SJL mice received a single fraction of 700 cGy TBI and were then treated either with PBS (saline) or 2 μg PTN intraperitoneally daily ×7 days (beginning 4 hours post irradiation). At day +7, the mice were sacrificed and total viable BM cells were quantified. Flow cytometric analysis was performed to estimate the percentage of BM KSL cells in each femur (Chute at al, Blood 109:2365-72 (2007), Salter et al, Blood 113:2104-7 (2009)). Colony forming cell (CFC) assays were performed using MethoCult M3434 media (Stem Cell Technologies, Vancouver, BC) as previously described (Chute et al, Blood 109:2365-72 (2007), Salter et al, Blood 113:2104-7 (2009)). Long-term cultureinitiating cell (LTC-IC) assays were performed as follows: Murine M2-10B4 (ATCC CRL-1972) BM stromal cells were plated in a 24 well dish and irradiated with 1500 cGy. Limiting dilutions (45,000, 90,000, and 180,000) of BM MNCs from irradiated mice that were treated with either PTN or PBS were added to the stromal cell layers and maintained in MyeloCult M5300 media (Stem Cell Technologies) with weekly half-medium changes for 4 weeks. At 4 weeks, the non-adherent and adherent cells (15,000 cells/dish) were collected and plated into 3×35 mm dishes (MethoCult, StemCell Technologies). After two weeks, hematopoietic colonies were counted and scored.
Since the addition of PTN was sufficient to induce HSC amplification in vitro a test was made as to whether administration of PTN could augment BM HSC regeneration in vivo following injury.

B1: PTN: Pleiotrophin, heparin binding growth factor; recombinant human PTN purchased from R&D systems (protein, UniProt P21246 33-168, looked up)
Pleiotrophin: GKKEKPEKKVKKSDCGEWQWSVCVPTSGDCGLGTREGTRTGAECKQTMKTQRCKIPCNWKKQFGAECKYQFQAWGECDLNTALKTRTGSLKRALHNAECQKTVTISKPCGKLTKPKPQAESKKKKKEGKKQEKMLD
increase in HSCs compared to input (BM 34−KSL cells; 12 week CRU): 4 fold | increase in HSCs compared to the progeny of TSF alone (BM 34−KSL cells; 12 week CRU): 6 fold | increase in CD45.1+ donor cell engraftment in the PB (BM 34−KSL cells; 12 weeks post-transplant, vs day 0 34−KSL cells and progeny of TSF alone, 100 ng/mL PTN): > 10 fold | CRU frequency, fold increased compared to input 34−KSL cells (BM 34−KSL cells; 24 weeks post-transplant): 4 fold | multilineage differentiation potential of HSCs (34−KSL cells): did not alter the normal multilineage differentiation potential | multilineage differentiation in secondary mice ([1]; 12 weeks): normal multilineage differentiation | CD45.1+ cell engraftment in secondary mice, fold higher vs 34−KSL cell group or TSF alone group ([1]; 12 weeks post-transplant, BM harvested at 24 weeks from primary recipients): > 10 fold | increase in BM colony forming cells (CFCs) [2]: 2.9 fold | increase in long-term culture-initiating cells (LTC-ICs) / BM HSC content [2]: 11 fold | increase in primitive BM KSL cells compared to controls [2]: 5.6 fold | increase in total BM cells compared to controls [2]: 2.3 fold
